As usually defined, the Kd is a measure of binding affinity in units of concentration.

Data set [1] deals with T1, Dbp2 WT (Schizosaccharomyces pombe, UniProt P24782 1-550). Kind of data set: EMSA; K+, 2 mM Mg2+; EMSA: 0.4 nM 32P-oligo (0.2 nM in Fig S4), 50 mM Tris (pH not stated), 50 mM KCl (DNA) or NaCl (RNA), 2 mM MgCl2, 2 mM DTT, 0.25 mg/ml BSA, 10 min at 30 C. The following applies: protein: recombinant; tags: C-terminal poly-His; label: 5'-32P; parallel G4, 5' A10 overhang.
Data set [2] deals with T2, Ded1 WT (Schizosaccharomyces pombe, UniProt O13370 1-636). Described as above. The following applies: protein: recombinant; tags: C-terminal poly-His; label: 5'-32P; parallel G4, 5' A10 overhang.
T2 sequence (O13370 whole entry): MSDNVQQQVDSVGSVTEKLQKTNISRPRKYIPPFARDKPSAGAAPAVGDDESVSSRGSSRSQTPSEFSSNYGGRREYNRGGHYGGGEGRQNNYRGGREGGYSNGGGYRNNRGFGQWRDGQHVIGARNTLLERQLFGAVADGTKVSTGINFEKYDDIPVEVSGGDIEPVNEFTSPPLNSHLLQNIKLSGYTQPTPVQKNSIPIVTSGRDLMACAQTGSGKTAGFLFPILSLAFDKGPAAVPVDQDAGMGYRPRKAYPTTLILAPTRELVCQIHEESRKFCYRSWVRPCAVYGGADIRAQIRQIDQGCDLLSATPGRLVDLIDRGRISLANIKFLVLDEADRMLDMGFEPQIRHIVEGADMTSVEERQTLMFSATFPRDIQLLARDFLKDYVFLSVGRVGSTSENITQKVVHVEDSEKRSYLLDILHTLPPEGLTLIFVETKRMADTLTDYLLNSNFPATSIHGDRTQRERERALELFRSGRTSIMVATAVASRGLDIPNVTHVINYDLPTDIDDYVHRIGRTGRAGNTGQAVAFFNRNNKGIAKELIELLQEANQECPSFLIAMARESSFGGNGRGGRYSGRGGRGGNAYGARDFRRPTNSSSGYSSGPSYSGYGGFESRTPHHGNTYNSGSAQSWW
In data set [3] the target is T3, Oga1 WT (Schizosaccharomyces pombe, UniProt O42914 1-284).
T3 sequence: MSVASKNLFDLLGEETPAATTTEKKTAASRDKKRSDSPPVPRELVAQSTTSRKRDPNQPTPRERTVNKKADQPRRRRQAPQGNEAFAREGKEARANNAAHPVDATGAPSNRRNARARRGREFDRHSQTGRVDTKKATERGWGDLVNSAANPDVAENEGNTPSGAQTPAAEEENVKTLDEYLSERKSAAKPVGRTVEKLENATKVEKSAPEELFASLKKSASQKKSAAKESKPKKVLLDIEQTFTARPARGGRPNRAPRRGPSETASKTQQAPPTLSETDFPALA
Kind of data set: EMSA; up to 10 nM protein; EMSA: 0.4 nM 32P-oligo (0.2 nM in Fig S4), 50 mM Tris (pH not stated), 50 mM KCl (DNA) or NaCl (RNA), 2 mM MgCl2, 2 mM DTT, 0.25 mg/ml BSA, 10 min at 30 C. The following applies: protein: recombinant; tags: C-terminal poly-His; label: 5'-32P; single strand. Background: A gel shift assay detects complexes by their altered migration in electrophoresis.

In data set [4] the target is T1, Dbp2 WT. The data set is described as above. The following applies: protein: recombinant; tags: C-terminal poly-His; label: 5'-32P; single strand.
For data set [5], the target named is T2, Ded1 WT. The description is as above. The following applies: protein: recombinant; tags: C-terminal poly-His; label: 5'-32P; single strand.
The target of data set [6] is T3, Oga1 WT. Kind of data set: EMSA; 10 nM protein, Na+; EMSA: 0.4 nM 32P-oligo (0.2 nM in Fig S4), 50 mM Tris (pH not stated), 50 mM KCl (DNA) or NaCl (RNA), 2 mM MgCl2, 2 mM DTT, 0.25 mg/ml BSA, 10 min at 30 C. The following applies: protein: recombinant, tags: C-terminal poly-His, label: 5'-32P.
Data set [7] addresses T1, Dbp2 WT. The description is as above. The following applies: protein: recombinant, tags: C-terminal poly-His, label: 5'-32P.
Data set [8] has as its target T2, Ded1 WT. The data set is described as above. The following applies: protein: recombinant, tags: C-terminal poly-His, label: 5'-32P.
[9] abbreviates: parallel G4, 5' U5 and 3' U5 overhangs.

T1 sequence (P24782 whole entry): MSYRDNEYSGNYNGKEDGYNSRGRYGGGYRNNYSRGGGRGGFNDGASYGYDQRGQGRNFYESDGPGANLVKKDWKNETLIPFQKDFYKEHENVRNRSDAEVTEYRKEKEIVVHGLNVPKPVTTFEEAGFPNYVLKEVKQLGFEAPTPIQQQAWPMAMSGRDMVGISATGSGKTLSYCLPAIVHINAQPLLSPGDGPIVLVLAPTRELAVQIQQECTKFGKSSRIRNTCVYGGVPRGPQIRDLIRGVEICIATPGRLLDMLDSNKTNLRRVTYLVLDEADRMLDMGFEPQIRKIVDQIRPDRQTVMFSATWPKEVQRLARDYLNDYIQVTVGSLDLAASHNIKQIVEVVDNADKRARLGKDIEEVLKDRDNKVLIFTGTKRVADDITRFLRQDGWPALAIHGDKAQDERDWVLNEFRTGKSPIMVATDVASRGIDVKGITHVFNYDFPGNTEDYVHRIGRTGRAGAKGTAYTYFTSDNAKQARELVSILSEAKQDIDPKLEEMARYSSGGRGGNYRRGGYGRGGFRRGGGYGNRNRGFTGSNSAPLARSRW

B1: 10A-rDNA G4 (structured_DNA)
DNA: AAAAAAAAAAGGGGAAGGGTGGGGCATGTTATGGG
Turning to B1, the Kd worked out at 3.84 ± 1.06 nM in data set [1] and 6.59 ± 0.1 nM in data set [2].

B2: 10A-rDNA scr (ssDNA)
DNA: AAAAAAAAAAGGTGCGAGGTGAGTGTGGAGTGAGG
On to B2, for which the binding result in data set [3], in data set [4] and in data set [5] was “no binding” each time.

B3: 5'-RNA-G4-3' (5U-G4-5U RNA) (structured_RNA)
RNA: UUUUUGGGGAAGGGUGGGGCAUGUUAUGGGUUUUU
Take B3: the binding result in data set [6] (setting [9]), in data set [7] (setting [9]) and in data set [8] (setting [9]) was “binds” in each case.

B4: 5'-RNA-G4 (10A-G4 RNA) (structured_RNA)
RNA: AAAAAAAAAAGGGGAAGGGUGGGGCAUGUUAUGGG
B4: the binding result in data set [6], in data set [7] and in data set [8] was “binds” throughout.
